We go through three molecules from patent US20240415889A1 (UNIVERSITY OF PITTSBURGH OF THE COMMONWEALTH SYSTEM OF …, published 2024).

Broadly, the EC50 is the concentration at which the effect is half-maximal. The low end stands for a more potent agent, the high end for a less potent agent. The term Kd denotes the constant that tells how readily two partners part at equilibrium. Read a low Kd as tighter binding.

In assay [1] the target is T1, single chain CD94/NKG2A-Fc (CD94/NKG2A-IgG1 fusion polypeptide) (human).
T1 construct: Biotinylated in the panning and BLItz experiments; also called CD94/NKG2A polypeptide; recombinant CD94/NKG2A polypeptide; not shown: human IgG1 Fc
Nature of the assay: indirect ELISA, coated CD94/NKG2A-Fc. The method, then: (§1) Binding and specificity of Fab or IgG to single chain CD94/NKG2A-Fc or single chain CD94/NKG2C-Fc were analyzed through indirect ELISA. Briefly, Fc-fused proteins were coated on a 96 well plate (Corning, 3690) at 200 ng/well (50 μL volume) in PBS for 2 hours at room temperature. Blocking was carried out with 3% BSA in PBS for overnight at 4° C. Next day, various concentration of Fab or IgG was applied to antigen coated plates and incubated for 1 hour at 25° C. After three times washing, anti-FLAG mouse antibody (M2 clone)-HRP conjugated (Sigma, A8592, 1:3000 dilution) or anti-human kappa goat antibody-HRP conjugated (Invitrogen, A18853, 1:3000 dilution) was applied to detect binding of either Fab or IgG. Same volume of TMB (Thermo, PI34028) was added as a substrate, and then enzymatic reactions were stopped by adding of 2N […].
A general note: ELISA stands for enzyme-linked immunosorbent assay.

Assay [2] concerns the target T2, single chain CD94/NKG2C-Fc (human).
T2 construct: also called CD94/NKG2C polypeptide; single chain CD94/NKG2C polypeptide; not shown: Fc
In words: indirect ELISA, coated CD94/NKG2C-Fc. The method, then: as §1

The target of assay [3] is T1, single chain CD94/NKG2A-Fc …. In words: BLItz biolayer interferometry. On the technique in general: In BLI a coated tip is dipped into the sample, and binding shifts an interference pattern.
Assay [4] concerns the target T3, CD94/NKG2A on the surface of primary human NK cells (human, UniProt Q13241 1-179; P26715 1-233).
T3 construct: Endogenous receptor on primary NK cells enriched from normal human PBMCs; also called intact NKG2A receptor on the surface of NK cell; cell surface NKG2A
Nature of the assay: flow cytometry on primary NK cells, 10 nM antibody.
Procedure: For investigation of NKG2A expression level of NK cells, enriched NK cells were activated with 50 IU/mL of hIL-2 and treated with the indicated antibodies (100 nM) for 24 hours at 37° C. After incubation with antibodies, cells were washed with cold PBS, and then the cell surface NKG2A was detected using a FITC- or PE-conjugated anti-human CD159a (NKG2A) antibody.

T1 sequence (chain, as listed by the source): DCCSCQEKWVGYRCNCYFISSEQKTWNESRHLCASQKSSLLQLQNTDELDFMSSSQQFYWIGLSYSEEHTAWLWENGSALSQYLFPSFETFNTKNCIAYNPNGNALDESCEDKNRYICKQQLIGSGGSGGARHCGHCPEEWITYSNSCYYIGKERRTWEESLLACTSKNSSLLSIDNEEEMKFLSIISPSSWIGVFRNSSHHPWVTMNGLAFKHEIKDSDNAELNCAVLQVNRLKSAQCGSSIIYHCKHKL
T2 sequence (chain, as listed by the source): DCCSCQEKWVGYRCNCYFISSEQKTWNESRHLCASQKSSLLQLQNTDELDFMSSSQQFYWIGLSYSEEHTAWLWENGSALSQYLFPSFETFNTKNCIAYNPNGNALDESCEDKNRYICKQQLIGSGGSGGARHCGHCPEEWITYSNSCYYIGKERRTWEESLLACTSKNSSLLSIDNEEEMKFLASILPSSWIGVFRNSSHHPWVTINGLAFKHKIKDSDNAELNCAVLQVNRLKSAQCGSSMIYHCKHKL
T3 sequence (Q13241 whole entry, chain 1 of 2): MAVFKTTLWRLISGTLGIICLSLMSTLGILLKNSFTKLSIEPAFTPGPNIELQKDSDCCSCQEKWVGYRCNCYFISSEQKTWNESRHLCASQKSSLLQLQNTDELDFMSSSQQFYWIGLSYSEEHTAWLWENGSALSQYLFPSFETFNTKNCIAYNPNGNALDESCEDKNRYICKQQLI
T3 sequence (P26715 whole entry, chain 2 of 2): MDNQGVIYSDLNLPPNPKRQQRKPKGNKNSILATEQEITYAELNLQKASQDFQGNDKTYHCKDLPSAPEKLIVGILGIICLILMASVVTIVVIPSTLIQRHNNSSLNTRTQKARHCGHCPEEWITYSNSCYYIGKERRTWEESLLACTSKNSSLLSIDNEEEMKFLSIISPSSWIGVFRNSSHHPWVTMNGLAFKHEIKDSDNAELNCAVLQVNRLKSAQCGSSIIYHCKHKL

B1: Fab Clone #1 (1B2) (Fab, V domains shown)
VH: QVQLVESGGGLVKPGGSLRLSCAASGFTFSDYYMSWIRQAPGKGLEWVSYISSSGSTIYYADSVKGRFTISRDNAKNSLYLQMNSLRAEDTAVYYCARGFYMDAWGKGTTVTVSS
VL: DIQMTQSPSSLSASVGDRVTITCRASQSISSYLNWYQQKPGKAPKLLIYAASSLQSGVPSRFSGSGSGTDFTLTISSLQPEDFGVYYCQYYGISPPFTFGPGTKVDIKR
notes: Fab from a phage library, expressed in E. coli and purified on Ni-NTA; detected in ELISA with an anti-FLAG antibody
Regarding B1, the EC50 in assay [1] turned out to be 2.7 nM. In addition, in assay [2], the binding result is recorded as “no binding”.

B2: IgG Clone #1 (1B2, IgG1-LALA-PG) (antibody, V domains shown)
VH: QVQLVESGGGLVKPGGSLRLSCAASGFTFSDYYMSWIRQAPGKGLEWVSYISSSGSTIYYADSVKGRFTISRDNAKNSLYLQMNSLRAEDTAVYYCARGFYMDAWGKGTTVTVSS
VL: DIQMTQSPSSLSASVGDRVTITCRASQSISSYLNWYQQKPGKAPKLLIYAASSLQSGVPSRFSGSGSGTDFTLTISSLQPEDFGVYYCQYYGISPPFTFGPGTKVDIKR
notes: Human IgG1 format with L234A, L235A and P329G (LALA-PG / AAG) in the Fc; Light chain detected with an anti-human kappa antibody; also called Clone #1 IgG; 1B2 (IgG Clone #1)
The molecule B2 registered a Kd in assay [3] of 1.1 nM. Moreover, the binding result in assay [4] is on record as “binds”.

B3: IgG Clone #2 (1B2-6, IgG1-LALA-PG) (antibody, V domains shown)
VH: EVQLVESGGGLVKPGGSLRLSCAASGFTFSGYYMSWIRQAPGKGLEWLAYISNSGRTIYYADSVKGRFTISRDNSNSSLYLQMNSLRAEDTAVYYCARGFYMDAWGKGTTVTVSS
VL: DIQMTQSPSSLSASVGDRVTITCRASQSISSYLNWYQQKPGKAPKLLIYAASSLQSGVPSRFSGSGSGTDFTLTISSLQPEDFGVYYCQYYGISPPFTFGPGTKVDIKR
notes: Human IgG1 format with L234A, L235A and P329G; also called Clone #2 IgG (anti-NKG2A)
B3 yielded an EC50 in assay [1] of 0.6 nM. For the same molecule, in assay [2], the binding result is reported as “no binding”.
